This assay deals with T1, chicken Scap-3xFLAG (pEZT-cScap-3xFLAG WT) expressed in HEK 293T cells (Gallus gallus).
T1 chain: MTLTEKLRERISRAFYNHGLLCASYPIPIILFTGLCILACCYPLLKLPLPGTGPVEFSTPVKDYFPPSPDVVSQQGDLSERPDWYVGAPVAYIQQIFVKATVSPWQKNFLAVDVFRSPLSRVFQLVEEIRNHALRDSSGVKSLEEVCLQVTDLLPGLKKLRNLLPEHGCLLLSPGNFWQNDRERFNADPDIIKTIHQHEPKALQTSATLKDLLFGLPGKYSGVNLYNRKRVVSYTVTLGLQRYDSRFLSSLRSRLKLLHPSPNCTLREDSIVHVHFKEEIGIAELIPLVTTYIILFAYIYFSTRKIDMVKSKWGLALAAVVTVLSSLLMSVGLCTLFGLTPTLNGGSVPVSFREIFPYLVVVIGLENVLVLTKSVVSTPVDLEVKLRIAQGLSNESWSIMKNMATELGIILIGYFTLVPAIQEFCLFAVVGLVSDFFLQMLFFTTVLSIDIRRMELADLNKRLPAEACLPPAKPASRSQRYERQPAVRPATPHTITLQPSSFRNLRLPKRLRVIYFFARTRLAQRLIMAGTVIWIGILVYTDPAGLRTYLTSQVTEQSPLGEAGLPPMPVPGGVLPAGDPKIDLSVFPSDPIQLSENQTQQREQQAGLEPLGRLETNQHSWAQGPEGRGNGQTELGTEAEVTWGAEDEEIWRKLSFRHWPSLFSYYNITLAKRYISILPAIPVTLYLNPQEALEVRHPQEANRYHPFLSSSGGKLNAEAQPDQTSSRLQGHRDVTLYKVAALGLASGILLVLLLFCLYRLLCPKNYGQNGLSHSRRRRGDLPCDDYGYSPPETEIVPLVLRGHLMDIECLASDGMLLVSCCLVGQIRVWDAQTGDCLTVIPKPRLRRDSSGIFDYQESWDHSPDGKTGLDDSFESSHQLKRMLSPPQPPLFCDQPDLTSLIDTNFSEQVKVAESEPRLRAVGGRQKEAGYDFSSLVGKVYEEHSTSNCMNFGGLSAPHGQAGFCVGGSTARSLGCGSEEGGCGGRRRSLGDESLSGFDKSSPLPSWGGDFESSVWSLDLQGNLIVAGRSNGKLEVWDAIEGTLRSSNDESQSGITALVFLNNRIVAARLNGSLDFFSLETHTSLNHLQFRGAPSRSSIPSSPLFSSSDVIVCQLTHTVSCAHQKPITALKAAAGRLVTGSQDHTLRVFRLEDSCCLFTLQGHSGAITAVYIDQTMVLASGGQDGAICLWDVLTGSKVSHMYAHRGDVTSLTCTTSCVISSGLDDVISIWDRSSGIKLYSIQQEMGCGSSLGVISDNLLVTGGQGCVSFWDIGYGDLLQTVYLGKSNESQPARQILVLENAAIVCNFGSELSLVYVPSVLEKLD
Nature of the assay: pull-down.

B1: Fab fragment derived from mouse monoclonal IgG 4G10 (Fab, V domains shown)
VH: EVQLQQSGAELVRPGASVKLSCTASGFKIKDDYIHWVKQRPEQGLEWIGRIDPANGHTRYAPKFQDKATITADTSSNTAYLQLSSLTSEDTAVYYCTRYNDYDAFYFDYWGQGTTLTVSS
VL: DIQMTQTTSSLSASLGDRVTISCRASQDIRNYLNWYQQKPDGTVKLLIYYTSRLHSGVPSRFSGSGSGTDYSLTISNLEQEDIATYFCQQTNTLPWTFGGGTKVEIK
With B1, the binding result was “binds”.
